Assay results as given in IntAct's records for PubMed 25096571.

Target: FOXP3, Q9BZS1-1
Sequence (Q9BZS1 whole entry): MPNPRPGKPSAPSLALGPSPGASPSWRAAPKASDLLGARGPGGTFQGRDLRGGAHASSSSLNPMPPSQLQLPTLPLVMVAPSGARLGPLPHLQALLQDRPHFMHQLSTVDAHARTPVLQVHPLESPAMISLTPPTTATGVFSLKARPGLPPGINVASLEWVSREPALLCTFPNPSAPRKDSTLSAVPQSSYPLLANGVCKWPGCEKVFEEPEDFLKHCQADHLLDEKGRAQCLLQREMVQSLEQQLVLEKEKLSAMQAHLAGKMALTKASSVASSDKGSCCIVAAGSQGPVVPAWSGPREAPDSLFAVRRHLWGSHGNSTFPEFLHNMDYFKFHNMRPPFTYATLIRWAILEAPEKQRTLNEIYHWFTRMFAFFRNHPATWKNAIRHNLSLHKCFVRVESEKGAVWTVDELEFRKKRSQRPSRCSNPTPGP

effect of a mutation on the interaction: disrupting interaction strength
Substance: Serine/threonine-protein kinase pim-1 (Homo sapiens), P11309-1 K67M
